From patent publication US12416018B2, “Regulation of gene expression by aptamer-mediated modulation of alternative splicing” (MEIRAGTX GENE REGULATION LIMITED, priority 2015, dated 2025)
“Also recorded” adds a separate entry of the source.

tested on: firefly luciferase gene expression in HEK 293 cells; experiment: Firefly luciferase assay of HEK 293 cells transfected with splicing / Intron-Exon-Intron constructs (no ligand); type: cell-based; details: not given
Experimental: Transfection: 3.5×10^4 HEK 293 cells were plated in 96-well flat bottom plate the day before transfection. Plasmid DNA (500 ng) was added to a tube or a 96-well U-bottom plate. Separately, TransIT-293 reagent (Mirus; 1.4 uL) was added to 50 μL Opti-mem I media (Life Technologies), and allowed to sit for 5 minutes at room temperature (RT). Then, 50 μL of this diluted transfection reagent was added to the DNA, mixed, and incubated at room temperature (“RT”) for 20 min. Finally, 7 μL of this solution was added to a well of cells in the 96-well plate.
Firefly luciferase assay of cultured cells: 24 hours after media change, plates were removed from the incubator, and equilibrated to RT for several minutes on a lab bench, then aspirated. Glo-lysis buffer (Promega, 100 μL, RT) was added, and the plates allowed to remain at RT for at least 5 minutes. Then, the well contents were mixed by 50 μL trituration, and 20 μL of each sample was mixed with 20 μL of bright-glo reagent (Promega) that had been diluted to 10% in glo-lysis buffer. 96 wells were spaced on an opaque white 384-well plate. Following a 5 min incubation at RT, luminescence was measured using Tecan machine with 500 mSec read time. The luciferase activity was expressed as mean relative light unit (RLU)±S.D.
The constructs were verified by DNA sequencing (Genewiz). DNA was transfected in HEK 293 cells and assayed for luciferase activity as described in Example 1.
Sequences containing the DHFR exon 2 with native 3′ and 5′ ss sequences, in which the 5′ss was embedded in a hairpin structure were synthesized (IDT), and cloned into the indicated vector using Golden Gate cloning strategy (NEB). Constructs were transfected into HEK 293 cells and assayed for luciferase activity as described in Example 1.

Row | Molecule | luciferase expression relative to control constructs (in words) | fold lower luciferase expression compared with Con 1 | fold increase in luciferase expression compared to the wild type DHFR exon 2
1 | DHFR_wtmtSRp40_HP15: DHFR_wtmtSRp40 with 5′ss in hairpin; SEQ ID NO: 56 (nucleic acid, expressed or natural sequence) DNA: GAGTAACGCTGTTTCTCTAACTTGTAGGAATGAATTCAGATATTTCCAGAGAATGAAAAAAAAATCTTCAGTAGAAGGTAATGTGGCGAAAGCCACATTACCTTCT | restored luciferase expression |  | 
2 | DHFR_wtmtSRp40_HP15x: DHFR_wtmtSRp40 with broken hairpin; SEQ ID NO: 57 (nucleic acid, expressed or natural sequence) DNA: GAGTAACGCTGTTTCTCTAACTTGTAGGAATGAATTCAGATATTTCCAGAGAATGAAAAAAAAATCTTCAGTAGAAGGTAATGTGGCGAAAAACAGAACTGAGTAT | blocked luciferase expression; also recorded: prevents expression of luciferase |  | 
3 | Con 2: luciferase with IVS2Δ, altered 5′ss; SEQ ID NO: 2 (nucleic acid, Luci-IVS-Luci in construct Con2) DNA: GATTACACCCGAGGGGGATGATAAAGTAAGCCTATGGGACCCTTGATGTTTTCTTTCCCCTTCTTTTCTATGGTTAAGTTCATGTCATAGGAAGGGGAGAAGTAACAGGGTACACATATTGACCAAATCAGGGTAATTTTGCATTTGTAATTTTAAAAAATGCTTTCTTCTTTTAATATACTTTTTTGTTTATCTTATTTCTAATACTTTCCCTAATCTCTTTCTTTCAGGGCAATAATGATACAATGTATCATGCCTCTTTGCACCATTCTAAAGAATAACAGTGATAATTTCTGGGTTAAGGCAATAGCAATATTTCTGCATATAAATATTTCTGCATATAAATTGTAACTGATGTAAGAGGTTTCATATTGCTAATAGCAGCTACAATCCAGCTACCATTCTGCTTTTATTTTATGGTTGGGATAAGGCTGGATTATTCTGAGTCCAAGCTAGGCCCTTTTGCTAATCATGTTCATACCTCTTATCTTCCTCCCACAGCCGGGCGCGGTCGGTAAAGT | expression levels similar to Con 1 and Con 8 |  | 
4 | DHFR_wt: Con 1 with wild type human DHFR exon 2, native 5′ss; SEQ ID NO: 47 (nucleic acid, expressed or natural sequence) DNA: GAGTAACGCTGTTTCTCTAACTTGTAGGAATGAATTCAGATATTTCCAGAGAATGACCACAACCTCTTCAGTAGAAGGTAATGTG |  | 116 fold | 
5 | DHFR_Con45ss: DHFR exon 2 with weak 5′ss from Con 4; SEQ ID NO: 50 (nucleic acid, expressed or natural sequence) DNA: GAGTAACGCTGTTTCTCTAACTTGTAGGAATGAATTCAGATATTTCCAGAGAATGACCACAACCTCTTCAGTAGGAGGTGTGGTG | luciferase expression is increased |  | 
6 | DHFR_wtmtSRp40: DHFR exon 2 with mutated SRp40 binding site; SEQ ID NO: 51 / 58 (nucleic acid, expressed or natural sequence) DNA 1: GAGTAACGCTGTTTCTCTAACTTGTAGGAATGAATTCAGATATTTCCAGAGAATGAAAAAAAAATCTTCAGTAGAAGGTAATGTG DNA 2: GAGTAACGCTGTTTCTCTAACTTGTAGGAATGAATTCAGATATTTCCAGAGAATGAAAAAAAAATCTTCAGTAGAAGGTAATGT | does not express luciferase | 2,982 fold | 
7 | DHFR_wtSC35hnRNPA1: DHFR exon 2, SC35 site replaced by hnRNP A1 binding site; SEQ ID NO: 53 (nucleic acid, expressed or natural sequence) DNA: GAGTAACGCTGTTTCTCTAACTTGTAGGAATGTAGGGAGATATTTCCAGAGAATGACCACAACCTCTTCAGTAGAAGGTAATGTG | increased luciferase expression |  | 4.3 fold
8 | DHFR_wt5ssC: DHFR exon 2 with native 5′ss four nucleotides mutated to C; SEQ ID NO: 48 (nucleic acid, expressed or natural sequence) DNA: GAGTAACGCTGTTTCTCTAACTTGTAGGAATGAATTCAGATATTTCCAGAGAATGACCACAACCTCTTCAGTAGAAGCCCCTGTG | restored to the level of Con 1 |  | 
9 | DHFR_wtStrSC35: DHFR exon 2 with stronger SC35 binding site; SEQ ID NO: 52 (nucleic acid, expressed or natural sequence) DNA: GAGTAACGCTGTTTCTCTAACTTGTAGGAATGGCCCCTGATATTTCCAGAGAATGACCACAACCTCTTCAGTAGAAGGTAATGTG |  | 139 fold | 
10 | DHFR_Con15ss: DHFR exon 2 with 5′ss from Con 1; SEQ ID NO: 49 (nucleic acid, expressed or natural sequence) DNA: GAGTAACGCTGTTTCTCTAACTTGTAGGAATGAATTCAGATATTTCCAGAGAATGACCACAACCTCTTCAGTAGAGGGTGAGTTG | abolishes luciferase expression compared to Con 1; also recorded: efficiently suppresses luciferase expression | 545 fold | 
11 | DHFR_Con15ss_HP15: DHFR_Con15ss with 15 bp hairpin embedding the 5′ss; SEQ ID NO: 54 (nucleic acid, expressed or natural sequence) DNA: GAGTAACGCTGTTTCTCTAACTTGTAGGAATGAATTCAGATATTTCCAGAGAATGACCACAACCTCTTCAGTAGAGGGTGAGTTGGCGAAAGCCAACTCACCCTCT | allows luciferase expression |  | 
12 | DHFR_Con15ss_HP15x: 15 bp hairpin with broken stem; SEQ ID NO: 55 (nucleic acid, expressed or natural sequence) DNA: GAGTAACGCTGTTTCTCTAACTTGTAGGAATGAATTCAGATATTTCCAGAGAATGACCACAACCTCTTCAGTAGAGGGTGAGTTGGCGAAAAACAGCATAAAGTAT | not able to restore luciferase expression; also recorded: does not restore luciferase expression |  | 
13 | Con 1: luciferase gene with truncated human beta-globin intron 2 (IVS2Δ), original IVS2 splice sites; SEQ ID NO: 1 (nucleic acid, Luci-IVS-Luci in construct Con1 Human beta- globin intron 2 containing a deletion (IVS2) is in lowercase and flanking luciferase sequence is in uppercase.) DNA: GAGGTTCCATCTGCCAGGTATCAGGGTGAGTCTATGGGACCCTTGATGTTTTCTTTCCCCTTCTTTTCTATGGTTAAGTTCATGTCATAGGAAGGGGAGAAGTAACAGGGTACACATATTGACCAAATCAGGGTAATTTTGCATTTGTAATTTTAAAAAATGCTTTCTTCTTTTAATATACTTTTTTGTTTATCTTATTTCTAATACTTTCCCTAATCTCTTTCTTTCAGGGCAATAATGATACAATGTATCATGCCTCTTTGCACCATTCTAAAGAATAACAGTGATAATTTCTGGGTTAAGGCAATAGCAATATTTCTGCATATAAATATTTCTGCATATAAATTGTAACTGATGTAAGAGGTTTCATATTGCTAATAGCAGCTACAATCCAGCTACCATTCTGCTTTTATTTTATGGTTGGGATAAGGCTGGATTATTCTGAGTCCAAGCTAGGCCCTTTTGCTAATCATGTTCATACCTCTTATCTTCCTCCCACAGCAAGGATATGGGCTCACTGAGACTACATCAGCTATTCT | did not affect gene expression |  | 
14 | Con 4: luciferase with IVS2Δ, weak 5′ss; SEQ ID NO: 4 (nucleic acid, Luci-IVS-Luci in construct Con4) DNA: AAGAGCTGTTTCTGAGGAGGTGTGGCTATGGGACCCTTGATGTTTTCTTTCCCCTTCTTTTCTATGGTTAAGTTCATGTCATAGGAAGGGGAGAAGTAACAGGGTACACATATTGACCAAATCAGGGTAATTTTGCATTTGTAATTTTAAAAAATGCTTTCTTCTTTTAATATACTTTTTTGTTTATCTTATTTCTAATACTTTCCCTAATCTCTTTCTTTCAGGGCAATAATGATACAATGTATCATGCCTCTTTGCACCATTCTAAAGAATAACAGTGATAATTTCTGGGTTAAGGCAATAGCAATATTTCTGCATATAAATATTTCTGCATATAAATTGTAACTGATGTAAGAGGTTTCATATTGCTAATAGCAGCTACAATCCAGCTACCATTCTGCTTTTATTTTATGGTTGGGATAAGGCTGGATTATTCTGAGTCCAAGCTAGGCCCTTTTGCTAATCATGTTCATACCTCTTATCTTCCTCCCACAGCCTTCAGGATTACAAGATTCAA | significantly reduce luciferase expression |  | 
15 | Con 3: luciferase with IVS2Δ, altered 5′ss; SEQ ID NO: 3 (nucleic acid, Luci-IVS-Luci in construct Con3) DNA: TTCTTCGCCAAAAGCAGTAAGTCTATGGGACCCTTGATGTTTTCTTTCCCCTTCTTTTCTATGGTTAAGTTCATGTCATAGGAAGGGGAGAAGTAACAGGGTACACATATTGACCAAATCAGGGTAATTTTGCATTTGTAATTTTAAAAAATGCTTTCTTCTTTTAATATACTTTTTTGTTTATCTTATTTCTAATACTTTCCCTAATCTCTTTCTTTCAGGGCAATAATGATACAATGTATCATGCCTCTTTGCACCATTCTAAAGAATAACAGTGATAATTTCTGGGTTAAGGCAATAGCAATATTTCTGCATATAAATATTTCTGCATATAAATTGTAACTGATGTAAGAGGTTTCATATTGCTAATAGCAGCTACAATCCAGCTACCATTCTGCTTTTATTTTATGGTTGGGATAAGGCTGGATTATTCTGAGTCCAAGCTAGGCCCTTTTGCTAATCATGTTCATACCTCTTATCTTCCTCCCACAGCTCTGATTGACAAATACG | expression levels similar to Con 1 and Con 8 |  | 

same assay, conditions: listed as DHFR_Con 15ss_HP15

Row | Molecule | luciferase expression relative to control constructs (in words)
16 | DHFR_Con15ss_HP15: DHFR_Con15ss with 15 bp hairpin embedding the 5′ss; SEQ ID NO: 54 (nucleic acid, expressed or natural sequence) DNA: GAGTAACGCTGTTTCTCTAACTTGTAGGAATGAATTCAGATATTTCCAGAGAATGACCACAACCTCTTCAGTAGAGGGTGAGTTGGCGAAAGCCAACTCACCCTCT | completely restores luciferase expression to the level of Con 1

same assay, conditions: listed as DHFR_mtSRp40

Row | Molecule | fold lower luciferase expression compared with Con 1
17 | DHFR_wtmtSRp40: DHFR exon 2 with mutated SRp40 binding site; SEQ ID NO: 51 / 58 (nucleic acid, expressed or natural sequence) DNA 1: GAGTAACGCTGTTTCTCTAACTTGTAGGAATGAATTCAGATATTTCCAGAGAATGAAAAAAAAATCTTCAGTAGAAGGTAATGTG DNA 2: GAGTAACGCTGTTTCTCTAACTTGTAGGAATGAATTCAGATATTTCCAGAGAATGAAAAAAAAATCTTCAGTAGAAGGTAATGT | 2982 fold
